Test results taken from patent publication US9187525B2, “Methods of treating ophthalmic diseases using NPR-B agonists” (Shire Orphan Therapies GmbH, dated 2015).
Numbered stars: 1 amine (or outer) side, 2 acyl side, 3 side chain; on linkers, the order of the positions; unused ones are H or OH. Square brackets hold non-standard residues; d marks the D form. Ends that are not written are not given here. * marks the point of attachment. Tap(2Me) = (2S,4R)-4-(dimethylamino)pyrrolidine-2-carboxylic acid, CN(C)[C@@H]1C[C@@H](C(=O)[*:2])N([*:1])C1; Ebe = (R)-2-amino-3-(methylsulfanyl)propanoic acid, CSC[C@H](N[*:1])C(=O)[*:2]; 6059 = 3-(Octane-1-sulfinyl)-propionic acid, CCCCCCCCS(=O)CCC(=O)*; 6072‑OH = rac-7-hydroxy-dodecanoic acid, CCCCCC(O)CCCCCC(=O)*; Pro(trans-4-NH2) = O=C([C@@H]1C[C@@H](N[*:3])CN1[*:1])[*:2]; 6071‑OH = rac-6-hydroxy-decanoic acid, CCCCC(O)CCCCC(=O)*; 6057 = 3-Octylsulfanyl-propionic acid, CCCCCCCCSCCC(=O)*; 6058 = 7-Butylsulfanyl-heptanoic acid, CCCCSCCCCCCC(=O)*; Sni = (S)-nipecotic acid, O=C([C@H]1CCCN([*:1])C1)[*:2]; Hyp = O=C(O)[C@@H]1C[C@@H](O)CN1; NMeF = CN[C@@H](Cc1ccccc1)C(=O)O; 2Pal = N[C@@H](Cc1ccccn1)C(=O)O; 4Pal = N[C@@H](Cc1ccncc1)C(=O)O; NMeL = CN[C@@H](CC(C)C)C(=O)O; Lauroyl = CCCCCCCCCCCC(=O)*; Decanoyl = CCCCCCCCCC(=O)*; dOrn = NCCC[C@@H](N)C(=O)O; 3Amb = NCc1cccc(C(=O)O)c1; Octanoyl = CCCCCCCC(=O)*; FrL = not defined here; Hexanoyl = CCCCCC(=O)*; Oct = not defined here

T1: natriuretic peptide receptor-B (human)
T1 chain: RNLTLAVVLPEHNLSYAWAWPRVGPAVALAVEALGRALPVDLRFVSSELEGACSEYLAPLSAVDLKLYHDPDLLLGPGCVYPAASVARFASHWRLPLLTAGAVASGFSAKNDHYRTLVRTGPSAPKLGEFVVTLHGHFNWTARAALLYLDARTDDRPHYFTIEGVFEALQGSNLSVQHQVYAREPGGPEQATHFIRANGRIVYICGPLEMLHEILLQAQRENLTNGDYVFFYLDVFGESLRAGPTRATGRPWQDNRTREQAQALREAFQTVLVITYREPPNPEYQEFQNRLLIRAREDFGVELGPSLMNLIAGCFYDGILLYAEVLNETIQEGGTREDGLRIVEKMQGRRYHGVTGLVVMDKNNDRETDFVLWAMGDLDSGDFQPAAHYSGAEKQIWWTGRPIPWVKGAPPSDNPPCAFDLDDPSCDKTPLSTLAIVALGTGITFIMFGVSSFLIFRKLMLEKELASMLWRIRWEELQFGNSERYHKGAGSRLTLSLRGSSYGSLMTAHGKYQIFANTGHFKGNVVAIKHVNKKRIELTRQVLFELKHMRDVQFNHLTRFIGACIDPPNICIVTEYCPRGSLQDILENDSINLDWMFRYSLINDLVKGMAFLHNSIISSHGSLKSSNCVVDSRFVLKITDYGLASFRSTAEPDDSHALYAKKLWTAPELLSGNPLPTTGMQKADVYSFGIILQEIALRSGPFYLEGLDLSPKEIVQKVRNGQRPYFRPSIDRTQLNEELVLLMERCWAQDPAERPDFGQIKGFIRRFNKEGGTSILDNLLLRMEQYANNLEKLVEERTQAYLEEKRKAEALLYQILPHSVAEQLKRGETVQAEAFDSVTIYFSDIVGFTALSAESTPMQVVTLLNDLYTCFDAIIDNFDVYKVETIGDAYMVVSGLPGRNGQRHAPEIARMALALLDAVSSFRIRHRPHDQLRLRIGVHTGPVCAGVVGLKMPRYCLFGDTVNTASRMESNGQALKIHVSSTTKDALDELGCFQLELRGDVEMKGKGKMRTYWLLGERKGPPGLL

B1: JAL-0543 (peptide)
peptide: Hexanoyl-[3Amb]FGLKLDRIS[Ebe]-NH2
SMILES: CCCCCC(=O)NCc1cccc(C(=O)N[C@@H](Cc2ccccc2)C(=O)NCC(=O)N[C@@H](CC(C)C)C(=O)N[C@@H](CCCCN)C(=O)N[C@@H](CC(C)C)C(=O)N[C@@H](CC(=O)O)C(=O)N[C@@H](CCCNC(=N)N)C(=O)N[C@H](C(=O)N[C@@H](CO)C(=O)N[C@@H](CSC)C(N)=O)[C@@H](C)CC)c1
B2: JAL-1255 (peptide)
peptide: Octanoyl-[Sni]FRL[Hyp][NMeL]DRI-NH2
modifications: not fully specified (some residues); printed as Occ-Sni-Phe-arg-Leu-Hyp-Nml-Asp-Arg-Ile-NH2
B3: JAL-1262 (peptide)
peptide: Octanoyl-AFGL[Tap(2Me)]LDRI-NH2
modifications: not fully specified (some residues); printed as Occ-ala-Phe-Gly-Leu-Tap(2Me)-Leu-Asp-Arg-Ile-
B4: JAL-1257 (peptide)
peptide: Octanoyl-[Sni][4Pal]LL[Hyp][NMeL]DRI-NH2
modifications: not fully specified (some residues); printed as Occ-Sni-Ppa-leu-Leu-Hyp-Nml-Asp-Arg-Ile-NH2
B5: JAL-1243 (peptide)
peptide: 6059-FRL[Hyp][NMeL]DRI-NH2
modifications: not fully specified (some residues); printed as 6059-Phe-arg-Leu-Hyp-Nml-Asp-Arg-Ile-NH2
B6: JAL-1268 (peptide)
peptide: Octanoyl-A[NMeF]KL[Hyp][NMeL]DRI-NH2
modifications: not fully specified (some residues); printed as Occ-ala-Nmf-lys-Leu-Hyp-Nml-Asp-Arg-Ile-
B7: JAL-1252 (peptide)
peptide: Octanoyl-AFSL[Hyp][NMeL]DRI-NH2
modifications: not fully specified (some residues); printed as Occ-ala-Phe-ser-Leu-Hyp-Nml-Asp-Arg-Ile-NH2
B8: JAL-1265 (peptide)
peptide: Octanoyl-[Sni]FXL[Hyp][NMeL]DRI-NH2
modifications: not fully specified (some residues); printed as Occ-Sni-Phe-orn-Leu-Hyp-Nml-Asp-Arg-Ile-NH2
B9: JAL-1244 (peptide)
peptide: Lauroyl-[NMeF]RL[Hyp][NMeL]DRI-NH2
modifications: not fully specified (some residues); printed as 832-Nmf-arg-Leu-Hyp-Nml-Asp-Arg-Ile-NH2
B10: JAL-1245 (peptide)
peptide: Lauroyl-FLL[Hyp][NMeL]DRI-NH2
modifications: not fully specified (some residues); printed as 832-Phe-leu-Leu-Hyp-Nml-Asp-Arg-Ile-NH2
B11: JAL-1269 (peptide)
peptide: Octanoyl-[dA][NMeF][dOrn]L[Hyp][NMeL]DRI-NH2
B12: JAL-1259 (peptide)
peptide: {6071‑OH}-FRL[Hyp][NMeL]DRI-NH2
modifications: not fully specified (some residues); printed as (6071-OH)-Phe-arg-Leu-Hyp-Nml-Asp-Arg-Ile-NH2
B13: JAL-1250 (peptide)
peptide: Octanoyl-AFRL[Pro(trans-4-NH2)]LDRI-NH2
modifications: not fully specified (some residues); printed as Occ-ala-Phe-arg-Leu-Tap-Leu-Asp-Arg-Ile-NH2
B14: JAL-1241 (peptide)
peptide: 6057-FRL[Hyp][NMeL]DRI-NH2
modifications: not fully specified (some residues); printed as 6057-Phe-arg-Leu-Hyp-Nml-Asp-Arg-Ile-NH2
B15: JAL-1266 (peptide)
peptide: Octanoyl-[Sni][2Pal]LL[Hyp][NMeL]DRI-NH2
modifications: not fully specified (some residues); printed as Occ-Sni-Opa-leu-Leu-Hyp-Nml-Asp-Arg-Ile-
B16: JAL-0631 (peptide)
peptide: Hexanoyl-G[dA]FGLKLDRI-NH2
B17: JAL-1263 (peptide)
peptide: Octanoyl-AFRL[Tap(2Me)]LDRI-NH2
modifications: not fully specified (some residues); printed as Occ-ala-Phe-arg-Leu-Tap(2Me)-Leu-Asp-Arg-Ile-NH2
B18: JAL-1246 (peptide)
peptide: Lauroyl-FRL[Hyp]LDRI-NH2
modifications: not fully specified (some residues); printed as 832-Phe-arg-Leu-Hyp-Leu-Asp-Arg-Ile-NH2
B19: JAL-1249 (peptide)
peptide: Octanoyl-AFGL[Pro(trans-4-NH2)]LDRI-NH2
modifications: not fully specified (some residues); printed as Occ-ala-Phe-Gly-Leu-Tap-Leu-Asp-Arg-Ile-NH2
B20: JAL-1261 (peptide)
peptide: Decanoyl-FRL[Hyp][NMeL]DRI-NH2
modifications: not fully specified (some residues); printed as 5587-Phe-arg-Leu-Hyp-Nml-Asp-Arg-Ile-NH2
B21: JAL-1260 (peptide)
peptide: {6072‑OH}-FRL[Hyp][NMeL]DRI-NH2
modifications: not fully specified (some residues); printed as (6072-OH)-Phe-arg-Leu-Hyp-Nml-Asp-Arg-Ile-NH2
B22: JAL-1242 (peptide)
peptide: 6058-FRL[Hyp][NMeL]DRI-NH2
modifications: not fully specified (some residues); printed as 6058-Phe-arg-Leu-Hyp-Nml-Asp-Arg-Ile-NH2
B23: JAL-1251 (peptide)
peptide: Octanoyl-AFLL[Pro(trans-4-NH2)]DRI-NH2
modifications: not fully specified (some residues); printed as Occ-ala-Phe-leu-Leu-Tap-Asp-Arg-Ile-NH2
B24: JAL-0632 (peptide)
peptide: Hexanoyl-A[dA]FGLKLDRI-NH2
B25: JAL-1248 (peptide)
peptide: [Oct][Sni][FrL][Hyp]LDRI-NH2
modifications: reading uncertain; also: printed as Oct-Sni-FrL-Hyp-Leu-Asp-Arg-Ile-NH2
B26: JAL-1256 (peptide)
peptide: Octanoyl-[Sni]XLL[Hyp][NMeL]DRI-NH2
modifications: not fully specified (some residues); printed as Occ-Sni-Mpa-leu-Leu-Hyp-Nml-Asp-Arg-Ile-
B27: JAL-1264 (peptide)
peptide: Octanoyl-AFLL[Tap(2Me)]LDRI-NH2
modifications: not fully specified (some residues); printed as Occ-ala-Phe-leu-Leu-Tap(2Me)-Leu-Asp-Arg-Ile-NH2
B28: JAL-1253 (peptide)
peptide: Octanoyl-[Sni]FSL[Hyp][NMeL]DRI-NH2
modifications: not fully specified (some residues); printed as Occ-Sni-Phe-ser-Leu-Hyp-Nml-Asp-Arg-Ile-NH2
B29: JAL-1254 (peptide)
peptide: Octanoyl-[Sni]FKL[Hyp][NMeL]DRI-NH2
modifications: not fully specified (some residues); printed as Occ-Sni-Phe-lys-Leu-Hyp-Nml-Asp-Arg-Ile-NH2

Molecular target: T1, natriuretic peptide receptor-B
Assay: cell-based or functional assay

EC50 group, cGMP in GTM-3 cells [µM]	Binder
≤ 15	B1
≤ 1	B2
≤ 5	B3
≤ 15	B4
≤ 5	B5
≤ 5	B6
≤ 1	B7
≤ 1	B8
≤ 15	B9
≤ 5	B10
≤ 5	B11
≤ 15	B12
≤ 1	B13
≤ 5	B14
≤ 5	B15
≤ 15	B16
≤ 5	B17
≤ 15	B18
≤ 1	B19
≤ 15	B20
≤ 5	B21
≤ 5	B22
≤ 1	B23
≤ 15	B24
≤ 5	B25
≤ 15	B26
≤ 5	B27
≤ 5	B28
≤ 1	B29
